The record followed here is paper PMC11463350.

Broadly, the Kd is the free concentration of one partner at which half of the binding sites on the other are occupied at equilibrium, for simple one-to-one binding. Low readings indicate higher affinity, high ones lower affinity.

This data set has as its target T1, zPol θ (zebrafish DNA polymerase theta, polymerase domain) (Danio rerio (zebrafish), UniProt F1Q4P4 1798-2576).
T1 sequence: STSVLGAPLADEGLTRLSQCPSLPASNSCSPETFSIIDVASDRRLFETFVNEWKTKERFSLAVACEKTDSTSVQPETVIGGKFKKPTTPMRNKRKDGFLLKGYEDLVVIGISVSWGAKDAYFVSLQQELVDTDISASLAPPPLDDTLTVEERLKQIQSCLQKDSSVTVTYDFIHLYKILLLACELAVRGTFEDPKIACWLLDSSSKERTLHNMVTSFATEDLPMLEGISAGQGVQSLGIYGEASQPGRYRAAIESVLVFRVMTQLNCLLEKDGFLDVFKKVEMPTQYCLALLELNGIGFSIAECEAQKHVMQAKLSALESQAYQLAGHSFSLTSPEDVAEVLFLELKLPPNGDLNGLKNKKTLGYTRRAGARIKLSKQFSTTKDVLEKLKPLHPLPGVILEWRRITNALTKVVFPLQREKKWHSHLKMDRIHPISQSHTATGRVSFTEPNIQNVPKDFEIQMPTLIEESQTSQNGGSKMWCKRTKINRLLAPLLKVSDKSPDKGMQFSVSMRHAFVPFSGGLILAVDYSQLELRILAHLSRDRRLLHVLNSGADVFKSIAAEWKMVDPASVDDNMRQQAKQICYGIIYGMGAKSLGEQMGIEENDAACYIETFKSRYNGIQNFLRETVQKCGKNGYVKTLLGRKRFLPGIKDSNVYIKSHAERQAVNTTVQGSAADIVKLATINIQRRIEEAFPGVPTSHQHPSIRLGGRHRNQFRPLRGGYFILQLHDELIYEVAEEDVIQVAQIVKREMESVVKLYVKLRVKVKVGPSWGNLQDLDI
The experiment in a line: EMSA. (A gel shift assay detects complexes by their altered migration in electrophoresis.)

B1: 25/40 undamaged DNA substrate (dsDNA)
DNA 1: TTTGCCTTGACCATGTAACAGAGAG
DNA 2: TCTCTTCTCTCACTCACGCTCTCTGTTACATGGTCAAGGC
Consider B1, for which the Kd was approximately 19.8 nM.
